Laboratory results: US20030017596A1

Target: Recombinant B19 parvovirus empty capsid particles (VP1/2) (B19 parvovirus) (UniProt P07299)
Test: cell-based or functional assay

## anti-B19 parvovirus monoclonal antibody (MAB8292)
  BFU-E colony counts (% of medium control), fetal liver cells; capsid 7 µg/ml + 0.02 µg/mL Mab (capsid only: 43%) (% of medium control): 52
  BFU-E colony counts (% of medium control), fetal liver cells; capsid 7 µg/ml + 0.2 µg/mL Mab (capsid only: 43%) (% of medium control): 52
  BFU-E colony counts (% of medium control), fetal liver cells; capsid 7 µg/ml + 2.0 µg/mL Mab (capsid only: 43%) (% of medium control): 69
  BFU-E colony counts (% of medium control), fetal liver cells; capsid 7 µg/ml + 20.0 µg/mL Mab (capsid only: 43%) (% of medium control): > 100
  CFU-GEMM colony counts (% of medium control), fetal liver cells; capsid 7 µg/ml + 0.02 µg/mL Mab (capsid only: 21%) (% of medium control): 21
  CFU-GEMM colony counts (% of medium control), fetal liver cells; capsid 7 µg/ml + 0.2 µg/mL Mab (capsid only: 21%) (% of medium control): 19
  CFU-GEMM colony counts (% of medium control), fetal liver cells; capsid 7 µg/ml + 2.0 µg/mL Mab (capsid only: 21%) (% of medium control): 45
  CFU-GEMM colony counts (% of medium control), fetal liver cells; capsid 7 µg/ml + 20.0 µg/mL Mab (capsid only: 21%) (% of medium control): 67
  CFU-GM colony counts (% of medium control), fetal liver cells; capsid 7 µg/ml + 0.02 µg/mL Mab (capsid only: 30%) (% of medium control): 30
  CFU-GM colony counts (% of medium control), fetal liver cells; capsid 7 µg/ml + 0.2 µg/mL Mab (capsid only: 30%) (% of medium control): 21
  CFU-GM colony counts (% of medium control), fetal liver cells; capsid 7 µg/ml + 2.0 µg/mL Mab (capsid only: 30%) (% of medium control): 35
  CFU-GM colony counts (% of medium control), fetal liver cells; capsid 7 µg/ml + 20.0 µg/mL Mab (capsid only: 30%) (% of medium control): 74
